Measurements taken from IntAct's records for PubMed 28684427.

B1: ALBINO3-like protein 1, chloroplastic (Arabidopsis thaliana (Mouse-ear cress)), Q9FYL3 (parent)
chain: MSSTISLKPTHLILSSFSTGKVLQFRRSRFSHTPSSSSSRYRTLVAQLGFRPDSFDFIKDHAENLLYTIADAAVSSSETFESVAGTTTKTTQSNDWFSGIANYMETILKVLKDGLSTVHVPYSYGFAIILLTVLVKAATFPLTKKQVESAMAMKSLTPQIKAIQERYAGDQEKIQLETARLYKLAGINPLAGCLPTLATIPVWIGLYRALSNVADEGLLTEGFFWIPSLAGPTTVAARQNGSGISWLFPFIEGHPPLGWPDTLAYLVLPLLLVFSQYLSIQIMQSSQSNDPAMKSSQAVTKLLPLMIGYFALSVPSGLSLYWLTNNILSTAQQVWLQKYGGAKNPVEKFTNLVTKEDKTQQIEKSFSEPLVQKSVSELKIPREKGGEKVTPECPKPGERFRLLKEQEAKRRREKEERQKAEAALSNQNTDKAHEQDEKSDTAIVAEDDKKTELSAVDETSDGTVAVNGKPSIQKDETTNGTFGIGHDTEQQHSHETEKR
partner: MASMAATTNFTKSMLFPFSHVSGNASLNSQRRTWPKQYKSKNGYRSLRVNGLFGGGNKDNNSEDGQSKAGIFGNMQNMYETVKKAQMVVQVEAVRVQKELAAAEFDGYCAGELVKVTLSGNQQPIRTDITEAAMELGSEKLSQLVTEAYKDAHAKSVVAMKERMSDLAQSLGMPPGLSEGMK

Variants of: B1
Conditions: with ebfc2_arath STIC2, O82230

Row | Variant | effect of a mutation on the interaction
1 | MSSTISLKPTHLILSSFSTGKVLQFRRSRFSHTPSSSSSRYRTLVAQLGFRPDSFDFIKDHAENLLYTIADAAVSSSETFESVAGTTTKTTQSNDWFSGIANYMETILKVLKDGLSTVHVPYSYGFAIILLTVLVKAATFPLTKKQVESAMAMKSLTPQIKAIQERYAGDQEKIQLETARLYKLAGINPLAGCLPTLATIPVWIGLYRALSNVADEGLLTEGFFWIPSLAGPTTVAARQNGSGISWLFPFIEGHPPLGWPDTLAYLVLPLLLVFSQYLSIQIMQSSQSNDPAMKSSQAVTKLLPLMIGYFALSVPSGLSLYWLTNNILSTAQQVWLQKYGGAKNPVEKFTNLVTKEDKTQQIEKSFSEPLVQKSVSELKIPREKGGEKVTPECPKPSERFRLLKEQEAKRRREKEERQKAEAALSNQNTDKAHEQDEKSDTAIVAEDDKKTELSAVDETSDGTVAVNGKPSIQKDETTNGTFGIGHDTEQQHSHETEKR [G397S] | decreasing interaction strength

Variants of: B1
Conditions: with ebfc2_arath STIC2, O82230
Remark: another data set of the same source

Row | Variant | effect of a mutation on the interaction
2 | MSSTISLKPTHLILSSFSTGKVLQFRRSRFSHTPSSSSSRYRTLVAQLGFRPDSFDFIKDHAENLLYTIADAAVSSSETFESVAGTTTKTTQSNDWFSGIANYMETILKVLKDGLSTVHVPYSYGFAIILLTVLVKAATFPLTKKQVESAMAMKSLTPQIKAIQERYAGDQEKIQLETARLYKLAGINPLAGCLPTLATIPVWIGLYRALSNVADEGLLTEGFFWIPSLAGPTTVAARQNGSGISWLFPFIEGHPPLGWPDTLAYLVLPLLLVFSQYLSIQIMQSSQSNDPAMKSSQAVTKLLPLMIGYFALSVPSGLSLYWLTNNILSTAQQVWLQKYGGAKNPVEKFTNLVTKEDKTQQIEKSFSEPLVQKSVSELKIPREKGGEKVTPECPKPSERFRLLKEQEAKRRREKEERQKAEAALSNQNTDKAHEQDEKSDTAIVAEDDKKTELSAVDETSDGTVAVNGKPSIQKDETTNGTFGIGHDTEQQHSHETEKR [G397S] | with no effect
